The record followed here is patent US20080300188A1 (GENEXINE, published 2008).

Assay [1] addresses T1, FcγRI (R&D, cat# BAF1257) (UniProt P12314 16-288, limits assumed).
T1 construct: Bought soluble reagent, added at 2 ug/ml; also called FcγR1
Briefly: ELISA, sample coated on strip, FcγRI added, detected with biotinylated anti-FcγRI and streptavidin-HRP. How it is done: (§1) To investigate whether hFc-5-fused proteins bind to FcγRI and C1q, MabThera® (Rituximab, Roche), hIgG1 (Calbiochem, Cat#, 400120), Enbrel® (etanercept, Amgen), EPO-hFc-5, G-CSF-hFc-5 and p40N303Q-hFc-5 were serially diluted (from 2 ug/ml to 16 ng/ml with 2-fold) and coated on the 8 well strip (COSTAR, New York) overnight at 4° C. To make a standard curve, FcγRI (R&D, cat# BAF1257) or C1q (AbD serotech, Cat#. 2221-5504) were also serially diluted (from 2 ug/ml to 32 ng/ml with 2-fold) and coated on the 8 well strip (COSTAR, New York) overnight at 4° C. After washing each strip of samples with washing buffer (PBS containing 0.05% tween) and blocking with 10% FBS in PBS for 1 hour at RT, FcγRI or C1q were added into each well at 2 ug/ml following incubation for 2 hours at room temperature (RT). All strips were washed with washing buffer. For C1q binding test, HRP conjugated anti-C1q (AbD serotech, cat#. 2221-5004P) was added into each well at 2.5 ug/ml following 30 min incubation at RT under dark condition. For FcγRI binding test, biotinylated anti-FcγRI (R&D, cat#. 1257-FC) was added into each well at 2 ug/ml following 1 hour incubation at RT. After washing them with washing buffer, Streptavidine-HRP (BD, cat#. 554066) diluted with 3,000 fold was added into each strip following 30 minute incubation at RT under dark condition. […]
For orientation: An ELISA detects its analyte on a solid surface through an enzyme-linked reagent.

The target of assay [2] is T2, C1q (AbD serotech, Cat#. 2221-5504) (UniProt P02745 23-245; P02746 28-253; P02747 29-245).
T2 construct: Bought C1q, added at 2 ug/ml
T2 sequence (P02745 23-245 limits assumed, chain 1 of 3): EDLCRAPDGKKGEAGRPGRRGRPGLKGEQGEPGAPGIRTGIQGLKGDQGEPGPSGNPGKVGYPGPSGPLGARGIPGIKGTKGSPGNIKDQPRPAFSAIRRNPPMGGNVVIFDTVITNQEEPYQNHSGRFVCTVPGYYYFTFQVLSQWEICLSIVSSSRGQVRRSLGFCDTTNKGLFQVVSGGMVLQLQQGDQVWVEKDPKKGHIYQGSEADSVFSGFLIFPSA
T2 sequence (P02746 28-253 limits assumed, chain 2 of 3): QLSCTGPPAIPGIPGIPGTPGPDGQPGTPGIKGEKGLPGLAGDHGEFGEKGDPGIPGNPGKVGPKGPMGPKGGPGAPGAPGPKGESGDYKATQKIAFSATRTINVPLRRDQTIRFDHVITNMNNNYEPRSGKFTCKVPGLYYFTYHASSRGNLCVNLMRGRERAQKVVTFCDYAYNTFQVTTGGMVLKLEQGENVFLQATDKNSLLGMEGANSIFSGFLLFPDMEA
T2 sequence (P02747 29-245 limits assumed, chain 3 of 3): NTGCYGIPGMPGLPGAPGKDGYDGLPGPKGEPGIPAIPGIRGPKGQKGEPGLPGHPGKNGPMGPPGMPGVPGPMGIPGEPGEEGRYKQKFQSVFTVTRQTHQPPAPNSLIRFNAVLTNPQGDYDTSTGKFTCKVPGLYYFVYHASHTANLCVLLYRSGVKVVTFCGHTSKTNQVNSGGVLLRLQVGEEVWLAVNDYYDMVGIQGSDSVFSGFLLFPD
The assay can be described thus: ELISA, sample coated on strip, C1q added, detected with HRP conjugated anti-C1q. How it is done:
as §1

T1 sequence (P12314 16-288 limits assumed): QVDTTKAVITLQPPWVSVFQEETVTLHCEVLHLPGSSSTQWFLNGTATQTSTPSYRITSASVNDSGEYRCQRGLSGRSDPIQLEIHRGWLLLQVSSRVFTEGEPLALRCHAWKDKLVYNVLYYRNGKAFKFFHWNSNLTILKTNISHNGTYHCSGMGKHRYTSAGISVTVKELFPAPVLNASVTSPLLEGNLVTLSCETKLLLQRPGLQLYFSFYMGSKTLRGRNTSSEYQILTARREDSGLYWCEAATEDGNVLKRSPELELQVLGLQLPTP

B1: p40N303Q-hFc-5 (Fc fusion)
chain: IWELKKDVYVVELDWYPDAPGEMVVLTCDTPEEDGITWTLDQSSEVLGSGKTLTIQVKEFGDAGQYTCHKGGEVLSHSLLLLHKKEDGIWSTDILKDQKEPKNKTFLRCEAKNYSGRFTCWWLTTISTDLTFSVKSSRGSSDPQGVTCGAATLSAERVRGDNKEYEYSVECQEDSACPAAEESLPIEVMVDAVHKLKYENYTSSFFIRDIIKPDPPKNLQLKPLKNSRQVEVSWEYPDTWSTPHSYFSLTFCVQVQGKSKREKKDRVFTDKTSATVICRKQASISVRAQDRYYSSSWSEWASVPCSRNTGRGGEEKKKEKEKEEQEERETKTPECPSHTQPLGVFLFPPKPKDTLMISRTPEVTCVVVDVSQEDPEVQFNWYVDGVEVHNAKTKPREEQFNSTYRVVSVLTVLHQDWLNGKEYKCKVSNKGLPSSIEKTISKAKGQPREPQVYTLPPSQEEMTKNQVSLTCLVKGFYPSDIAVEWESNGQPENNYKTTPPVLDSDGSFFLYSRLTVDKSRWQEGNVFSCSVMHEALHNHYTQKSLSLSLGK
notes: also called human p40N303Q-hFc-5
With B1, the binding result in assay [1] and in assay [2] was “no binding” in each case.
